Experimental data as given in patent publication US9932404B2 (Janssen Biotech, Inc., dated 2018).

Molecular target: full length human TLR3 (human)
Test: cell-based or functional assay

Binder	% inhibition of poly(I:C)-induced NF-κB luciferase reporter [%]
mAb 2 (antibody, V domains shown) VH: QVELVQSGAEVKKPGESLKISCKGSGYSFNNYWIGWVRQMPGKGLEWMGIIDPQDSWTNYAPSFQGQVTISADKSISTAYLQWSSLKASDTAMYYCARNIYEFDYWGQGTLVTVSS VL: DIQMTQSPSSLSASVGDRVTITCRASQGISSWLNWYQQKPGKAPKLLIYGASNLQSGVPSRFSGSGSGTDFTLTISSLQPEDFAVYYCQQYDDFSITFGQGTKVEIK	> 50
mAb 1 (antibody, V domains shown) V domain 1: GVELVQSGAEVKKPGESLKISCKGSGYSFTDNWISWVRQAPGKGLEWMGVIDPSDSYTNYAPSFQGQVTISADKSISTAYLQWSSLKASDTAMYYCAREWGIGGMVDIWG V domain 2: DIVLTQSPATLSLSPGERATLSCRASQYIDISYLAWYQQKPGQAPRLLIYDASSRATGVPARFSGSGSGTDFTLTISSLEPEDFAVYYCQQYYSLSITFGQGTKVEIK	> 50
mAb 8 (antibody, V domains shown) VH: QVELQQSGPGLVKPSQTLSLTCAISGDSVSSNSAAWGWIRQSPGRGLEWLGIIQTRSKWYNDYAVSVKSRITINPDTSKNQFSLQLNSVTPEDTAVYYCARYSYPFYSIDYWGQGTLVTVSS VL: DIELTQPPSVSVAPGQTARISCSGDNIGSYYVHWYQQKPGQAPVLVIYEDSERPSGIPERFSGSNSGNTATLTISGTQAEDEADYYCQSYDSQFSFGVFGGGTKLTVL	> 50
mAb 9 (antibody, V domains shown) VH: QVELQQSGPGLVKPSQTLSLTCAISGDSVSSNSAAWGWIRQSPGRGLEWLGIIQIRSKWYNDYALSVKSRITINPDTSKNQFSLQLNSVTPEDTAVYYCARYSYPFYSIDYWGQGTLVTVSS VL: DIELTQPPSVSVAPGQTARISCSGDNIGSYYVHWYQQKPGQAPVLVIYEDSERPSGIPERFSGSNSGNTATLTISGTQAEDEADYYCQSYDSQFSFGVFGGGTKLTVL	> 50
mAb 10 (antibody, V domains shown) VH: QVELQQSGPGLVKPSQTLSLTCAISGDSVSSNSAAWGWIRQSPGRGLEWLGIIQKRSKWYNNYAVSVKSRITINPDTSKNQFSLQLNSVTPEDTAVYYCARYSYPFYSIDYWGQGTLVTVSS VL: DIELTQPPSVSVAPGQTARISCSGDNIGSYYVHWYQQKPGQAPVLVIYEDSERPSGIPERFSGSNSGNTATLTISGTQAEDEADYYCQSYDTPVYSVFGGGTKLTVL	> 50
mAb 11 (antibody, V domains shown) VH: QVELQQSGPGLVKPSQTLSLTCAISGDSVSSNSAAWGWIRQSPGRGLEWLGIIQKRSKWYNNYAVSVKSRITINPDTSKNQFSLQLNSVTPEDTAVYYCARYSYPFYSIDYWGQGTLVTVSS VL: DIELTQPPSVSVAPGQTARISCSGDNIGSYYVHWYQQKPGQAPVLVIYEDSERPSGIPERFSGSNSGNTATLTISGTQAEDEADYYCSSYDEPNFNVFGGGTKLTVL	> 50
mAb 3 (antibody, V domains shown) VH: QVELQQSGPGLVKPSQTLSLTCAISGDSVSTRSAAWGWIRQSPGRGLEWLGRIHRRSKWYNDYAVSVKSRITINPDTSKNQFSLQLNSVTPEDTAVYYCARHTYPYLSFDVWGQGTLVTVSS VL: DIELTQPPSVSVAPGQTARISCSGDALGGYFVSWYQQKPGQAPVLVIYDDDNRPSGIPERFSGSNSGNTATLTISGTQAEDEADYYCASYDGDEFTVFGGGTKLTVL	> 50
mAb 7 (antibody, V domains shown) VH: QVELQQSGPGLVKPSQTLSLTCAISGDSVSTRSAAWGWIRQSPGRGLEWLGRIYMRSKWYNDYAVSVKSRITINPDTSKNQFSLQLNSVTPEDTAVYYCARHTYPYLSFDVWGQGTLVTVSS VL: DIELTQPPSVSVAPGQTARISCSGDALGGYFVSWYQQKPGQAPVLVIYDDDNRPSGIPERFSGSNSGNTATLTISGTQAEDEADYYCSSYDSDSLTVFGGGTKLTVL	> 50
mAb 5 (antibody, V domains shown) VH: QVELQQSGPGLVKPSQTLSLTCAISGDSVSTRSAAWGWIRQSPGRGLEWLGRIYMRSKWYNDYAVSVKSRITINPDTSKNQFSLQLNSVTPEDTAVYYCARHTYPYLSFDVWGQGTLVTVSS VL: DIELTQPPSVSVAPGQTARISCSGDALGGYFVSWYQQKPGQAPVLVIYDDDNRPSGIPERFSGSNSGNTATLTISGTQAEDEADYYCQSYDEDSATVFGGGTKLTVL	> 50
mAb 4 (antibody, V domains shown) VH: QVELQQSGPGLVKPSQTLSLTCAISGDSVSTRSAAWGWIRQSPGRGLEWLGKISYRSRWYNDYAVSVKSRITINPDTSKNQFSLQLNSVTPEDTAVYYCARHTYPYLSFDVWGQGTLVTVSS VL: DIELTQPPSVSVAPGQTARISCSGDALGGYFVSWYQQKPGQAPVLVIYDDDNRPSGIPERFSGSNSGNTATLTISGTQAEDEADYYCASYDGDEFTVFGGGTKLTVL	> 50
mAb 6 (antibody, V domains shown) VH: QVELQQSGPGLVKPSQTLSLTCAISGDSVSTRSAAWGWIRQSPGRGLEWLGRIYMRSKWYNDYAVSVKSRITINPDTSKNQFSLQLNSVTPEDTAVYYCARHTYPYLSFDVWGQGTLVTVSS VL: DIELTQPPSVSVAPGQTARISCSGDALGGYFVSWYQQKPGQAPVLVIYDDDNRPSGIPERFSGSNSGNTATLTISGTQAEDEADYYCGSYDSNSLTVFGGGTKLTVL	> 50

The remaining lines, values ahead:

% inhibition of poly(I:C)-induced NF-κB luciferase reporter [%]	Binder
> 50	mAb 16 (antibody, V domains shown) VH: QVELVQSGAEVKKPGESLKISCKGSGYSFNNYWIGWVRQMPGKGLEWMGIIDPGDSYTNYAPSFQGQVTISADKSISTAYLQWSSLKASDTAMYYCARNIYEFDYWGQGTLVTVSS VL: DIQMTQSPSSLSASVGDRVTITCRASQGISSWLNWYQQKPGKAPKLLIYGASNLQSGVPSRFSGSGSGTDFTLTISSLQPEDFAVYYCQQYDDFSITFGQGTKVEIK
> 50	mAb 13 (antibody, V domains shown) VH: QVELVQSGAEVKKPGESLKISCKGSGYSFTNYWVGWVRQMPGKGLEWMGFIDPSDSYTNYAPSFQGQVTISADKSISTAYLQWSSLKASDTAMYYCARELYQGYMDTFDSWGQGTLVTVSS VL: DIQMTQSPSSLSASVGDRVTITCRASQSIGLYLAWYQQKPGKAPKLLIYAASSLQSGVPSRFSGSGSGTDFTLTISSLQPEDFATYYCQQGESILSTFGQGTKVEIK
> 50	mAb 14 (antibody, V domains shown) VH: QVELVQSGAEVKKPGESLKISCKGSGYSFTNYWVGWVRQMPGKGLEWMGFIDPSDSYTNYAPSFQGQVTISADKSISTAYLQWSSLKASDTAMYYCARELYQGYMDTFDSWGQGTLVTVSS VL: DIQMTQSPSSLSASVGDRVTITCRASQSIGLYLAWYQQKPGKAPKLLIYAASSLQSGVPSRFSGSGSGTDFTLTISSLQPEDFATYYCQQAETVSPTFGQGTKVEIKR
> 50	mAb 19 (antibody, V domains shown) VH: QVELVQSGAEVKKPGESLKISCKGSGYSFTNYWVGWVRQMPGKGLEWMGFIDPSDSYTNYAPSFQGQVTISADKSISTAYLQWSSLKASDTAMYYCARELYQGYMDTFDSWGQGTLVTVSS VL: DIQMTQSPSSLSASVGDRVTITCRASQSIGLYLAWYQQKPGKAPKLLIYAASSLQSGVPSRFSGSGSGTDFTLTISSLQPEDFATYYCQQYGSVSITFGQGTKVEIK
> 50	mAb 15 (antibody) heavy: not shown light: DIQMTQSPSSLSASVGDRVTITCRASQSIGLYLAWYQQKPGKAPKLLIYAASSLQSGVPSRFSGSGSGTDFTLTISSLQPEDFATYYCQQGNTLSYTFGQGTKVEIKRTVAAPSVFIFPPSDEQLKSGTASVVCLLNNFYPREAKVQWKVDNALQSGNSQESVTEQDSKDSTYSLSSTLTLSKADYEKHKVYACEVTHQGLSSPVTKSFNRGEC
> 50	mAb 18 (antibody, V domains shown) VH: QVELQQSGPGLVKPSQTLSLTCAISGDSVSSNSAAWGWIRQSPGRGLEWLGIIQKRSKWYNNYAVSVKSRITINPDTSKNQFSLQLNSVTPEDTAVYYCARYSYPFYSIDYWGQGTLVTVSS VL: DIELTQPPSVSVAPGQTARISCSGDNIGSYYVHWYQQKPGQAPVLVIYEDSERPSGIPERFSGSNSGNTATLTISGTQAEDEADYYCQSYDSQFSFGVFGGGTKLTVL
> 50	mAb 12 (antibody, V domains shown) V domain 1: QVELQQSGPGLVKPSQTLSLTCAISGDSVSSNSAAWGWIRQSPGRGLEWLGIIQKRSKWYNNYAVSVKSRITINPDTSKNQFSLQLNSVTPEDTAVYYCARYSYPFYSIDYWGQGTLVTVSS V domain 2: DIELQQSGPGLVKPSQTLSLTCAISGDSVSSNSAAWGWIRQSPGRGLEWLGIIQKRSKWYNNYAVSVKSRITINPDTSKNQFSLQLNSVTPEDTAVYYCARYSYPFYSIDYWGQGTLVTVSS
> 50	mAb 17 (antibody, V domains shown) VH: QVELQQSGPGLVKPSQTLSLTCAISGDSVSTRSAAWGWIRQSPGRGLEWLGRIYMRSKWYNDYAVSVKSRITINPDTSKNQFSLQLNSVTPEDTAVYYCARHTYPYLSFDVWGQGTLVTVSS VL: DIELTQPPSVSVAPGQTARISCSGDALGGYFVSWYQQKPGQAPVLVIYDDDNRPSGIPERFSGSNSGNTATLTISGTQAEDEADYYCASYDGDEFTVFGGGTKLTVL

Molecular target: cynomolgus TLR3 (cynomolgus, UniProt A0A2K5WT39)
Test: cell-based or functional assay

IC50, ISRE reporter gene assay [µg/mL]	IC50, NF-κB reporter gene assay [µg/mL]	Binder
1.74	4.18	mAb 15EVQ (antibody) heavy: not shown light: DIQMTQSPSSLSASVGDRVTITCRASQSIGLYLAWYQQKPGKAPKLLIYAASSLQSGVPSRFSGSGSGTDFTLTISSLQPEDFATYYCQQGNTLSYTFGQGTKVEIKRTVAAPSVFIFPPSDEQLKSGTASVVCLLNNFYPREAKVQWKVDNALQSGNSQESVTEQDSKDSTYSLSSTLTLSKADYEKHKVYACEVTHQGLSSPVTKSFNRGEC

Molecular target: full-length murine TLR3 (mouse)
Test: cell-based or functional assay

IC50, poly(I:C)-induced ISRE luciferase reporter [µg/mL]	Binder
22	mAb 15 (antibody) heavy: not shown light: DIQMTQSPSSLSASVGDRVTITCRASQSIGLYLAWYQQKPGKAPKLLIYAASSLQSGVPSRFSGSGSGTDFTLTISSLQPEDFATYYCQQGNTLSYTFGQGTKVEIKRTVAAPSVFIFPPSDEQLKSGTASVVCLLNNFYPREAKVQWKVDNALQSGNSQESVTEQDSKDSTYSLSSTLTLSKADYEKHKVYACEVTHQGLSSPVTKSFNRGEC
0.5	mAb 5429 (antibody, V domains shown) VH: EVQLVASGGGLVKPGASLKLSCVASGFTFSDYWMAWVRQTPGKPMEYIGDIKSDGSKVNYAPSLKNRFTISRDNARTTLYLQMSNVRSEDTATYYCNRDIGPDWYFDFWGPGTMVTVSS VL: DIQMTQSPTSLSASLGETVTIECRASEDIYNGLAWYQQKPGKSPQLLIYDSNSLHTGVPSRFSGRGSGTQYSLRINSLQSEDVASYFCQQYYDYPLTFGSGTKLEIKR
